{
  "source": "patent US20240059757A1",
  "about": "(VIR BIOTECHNOLOGY, published 2024)",
  "key": {"[1]": {"molecular_target": "T1, SARS-CoV RBD (Sino Biological) (SARS-CoV, UniProt P59594 306-527)", "assay": "BLI"}, "[2]": {"molecular_target": "T2, SARS-CoV Spike protein (SARS-CoV, UniProt P59594 14-1255)", "assay": "cell-based or functional assay"}, "[3]": {"molecular_target": "T1, SARS-CoV RBD (Sino Biological)"}, "[4]": {"molecular_target": "WIV-1 spike protein (on VSV pseudovirus) (WIV-1)", "assay": "cell-based or functional assay"}, "[5]": {"molecular_target": "PANG/GD spike protein (PANG/GD)", "assay": "cell-based or functional assay"}, "[6]": {"molecular_target": "T2, SARS-CoV Spike protein", "assay": "cell-based or functional assay", "remark": "listed apart in the source"}, "[7]": {"molecular_target": "PANG/GX spike protein (PANG/GX)", "assay": "cell-based or functional assay"}, "[8]": {"molecular_target": "T1, SARS-CoV RBD (Sino Biological)", "assay": "BLI", "remark": "listed apart in the source"}},
  "note": "Read-outs that look alike come from different tables or passages of the source.",
  "data": [
    {"binder": "S2X259 variant antibody, VH SEQ ID NO 408 / VL SEQ ID NO 442 (antibody, V domains shown) VH: QVQLVQSGAEVKKPGSSVKVSCKASGGIFNTYTISWVRQAPGQGLEWMGRIILMSGMANYAQKIQGRVTITADKSTSTAYMELTSLRSDDTAVYYCARGFNGNYYGWGDDDAFDISGQGTLVTVYS VL: QTVLTQPPSVSGAPGQRVTISCTGSNSNIGAGYDVHWYQQLPGTAPKLLISGNSNRPSGVPDRFSGSKSGTSASLAITGLQAEDEADYYCQSYDSSLSGPNWVFGGGTKLTVL", "values": [
      {"measurement": "Kd", "setting": "[1]", "result": 0.397, "unit": "nM"},
      {"measurement": "neutralization IC50", "setting": "[2]", "result": 0.0531, "unit": "µg/mL"}
    ]},
    {"binder": "S2X259 variant antibody, VH SEQ ID NO 460 / VL SEQ ID NO 445 (antibody, V domains shown) VH: QVQLVQSGAEVKKPGSSVKVSCKASGGIFNTYTISWVRQAPGQGLEWMGRIILISGIANYAQKIQGRVTITADKSTSTAYMELTSLRSDDTAVYYCARGFNGNYYGWGDDDAFDIWGQGTLVTVSS VL: QTVLTQPPSVSGAPGQRVTISCTGSNSNIGAGYDVHWYQQLPGTAPKLLIVGNSNRPSGVPDRFSGSKSGTSASLAITGLQAEDEADYYCQSYDSSLSGPNWVFGGGTKLTVL", "values": [
      {"measurement": "Kd", "setting": "[3]", "result": 1.59, "unit": "nM"},
      {"measurement": "koff", "setting": "[3]", "result": 0.000621, "unit": "s⁻¹"},
      {"measurement": "kon", "setting": "[3]", "result": 391000, "unit": "M⁻¹ s⁻¹"}
    ]},
    {"binder": "S2X259 variant antibody, VH SEQ ID NO 459 / VL SEQ ID NO 445 (antibody, V domains shown) VH: QVQLVQSGAEVKKPGSSVKVSCKASGGIFNTYTISWVRQAPGQGLEWMGRIILMSGKANYAQKIQGRVTITADKSTSTAYMELTSLRSDDTAVYYCARGFNGNYYGWGDDDAFDIWGQGTLVTVSS VL: QTVLTQPPSVSGAPGQRVTISCTGSNSNIGAGYDVHWYQQLPGTAPKLLIVGNSNRPSGVPDRFSGSKSGTSASLAITGLQAEDEADYYCQSYDSSLSGPNWVFGGGTKLTVL", "values": [
      {"measurement": "Kd", "setting": "[3]", "result": 0.792, "unit": "nM"},
      {"measurement": "koff", "setting": "[3]", "result": 0.000273, "unit": "s⁻¹"},
      {"measurement": "kon", "setting": "[3]", "result": 345000, "unit": "M⁻¹ s⁻¹"}
    ]},
    {"binder": "S2X259 variant antibody, VH SEQ ID NO 408 / VL SEQ ID NO 443 (antibody, V domains shown) VH: QVQLVQSGAEVKKPGSSVKVSCKASGGIFNTYTISWVRQAPGQGLEWMGRIILMSGMANYAQKIQGRVTITADKSTSTAYMELTSLRSDDTAVYYCARGFNGNYYGWGDDDAFDISGQGTLVTVYS VL: QTVLTQPPSVSGAPGQRVTISCTGSNSNIGAGYDVHWYQQLPGTAPKLLIAGNSNRPSGVPDRFSGSKSGTSASLAITGLQAEDEADYYCQSYDSSLSGPNWVFGGGTKLTVL", "values": [
      {"measurement": "neutralization IC50", "setting": "[4]", "result": "< 0.1", "unit": "µg/mL"},
      {"measurement": "neutralization IC50", "setting": "[5]", "result": "< 0.1", "unit": "µg/mL"},
      {"measurement": "neutralization IC50", "setting": "[6]", "result": "< 0.1", "unit": "µg/mL"},
      {"measurement": "neutralization IC50", "setting": "[7]", "result": "< 0.1", "unit": "µg/mL"},
      {"measurement": "Kd", "setting": "[1]", "result": 0.521, "unit": "nM"},
      {"measurement": "neutralization IC50", "setting": "[2]", "result": 0.0353, "unit": "µg/mL"}
    ]},
    {"binder": "S2X259 variant antibody, VH SEQ ID NO 458 / VL SEQ ID NO 445 (antibody, V domains shown) VH: QVQLVQSGAEVKKPGSSVKVSCKASGGIFNTYTISWVRQAPGQGLEWMGRIILMSGMANYAQKIQGRVTITADKSTSTAYMELTSLRSDDTAVYYCARGFNGNYYGWGDDDAFDIWGQGTLVTVSS VL: QTVLTQPPSVSGAPGQRVTISCTGSNSNIGAGYDVHWYQQLPGTAPKLLIVGNSNRPSGVPDRFSGSKSGTSASLAITGLQAEDEADYYCQSYDSSLSGPNWVFGGGTKLTVL", "values": [
      {"measurement": "Kd", "setting": "[8]", "result": 0.455, "unit": "nM"},
      {"measurement": "koff", "setting": "[8]", "result": 0.000173, "unit": "s⁻¹"},
      {"measurement": "kon", "setting": "[8]", "result": 380000, "unit": "M⁻¹ s⁻¹"}
    ]},
    {"binder": "S2X259 variant antibody, VH SEQ ID NO 408 / VL SEQ ID NO 445 (antibody, V domains shown) VH: QVQLVQSGAEVKKPGSSVKVSCKASGGIFNTYTISWVRQAPGQGLEWMGRIILMSGMANYAQKIQGRVTITADKSTSTAYMELTSLRSDDTAVYYCARGFNGNYYGWGDDDAFDISGQGTLVTVYS VL: QTVLTQPPSVSGAPGQRVTISCTGSNSNIGAGYDVHWYQQLPGTAPKLLIVGNSNRPSGVPDRFSGSKSGTSASLAITGLQAEDEADYYCQSYDSSLSGPNWVFGGGTKLTVL", "values": [
      {"measurement": "neutralization IC50", "setting": "[4]", "result": "< 0.1", "unit": "µg/mL"},
      {"measurement": "neutralization IC50", "setting": "[5]", "result": "< 0.1", "unit": "µg/mL"},
      {"measurement": "neutralization IC50", "setting": "[6]", "result": "< 0.1", "unit": "µg/mL"},
      {"measurement": "neutralization IC50", "setting": "[7]", "result": "< 0.1", "unit": "µg/mL"},
      {"measurement": "Kd", "setting": "[1]", "result": 0.53, "unit": "nM"},
      {"measurement": "neutralization IC50", "setting": "[2]", "result": 0.036, "unit": "µg/mL"},
      {"measurement": "Kd", "setting": "[8]", "result": 0.176, "unit": "nM"},
      {"measurement": "koff", "setting": "[8]", "result": "~7.24e-05", "unit": "s⁻¹"},
      {"measurement": "kon", "setting": "[8]", "result": 411000, "unit": "M⁻¹ s⁻¹"}
    ]},
    {"binder": "S2X259 variant antibody, VH SEQ ID NO 446 / VL SEQ ID NO 412 (antibody, V domains shown) VH: QVQLVQSGAEVKKPGSSVKVSCKASGGIFNTYTISWVRQAPGQGLEWMGRIILISGIANYAQKIQGRVTITADKSTSTAYMELTSLRSDDTAVYYCARGFNGNYYGWGDDDAFDISGQGTLVTVYS VL: QTVLTQPPSVSGAPGQRVTISCTGSNSNIGAGYDVHWYQQLPGTAPKLLICGNSNRPSGVPDRFSGSKSGTSASLAITGLQAEDEADYYCQSYDSSLSGPNWVFGGGTKLTVL", "values": [
      {"measurement": "Kd", "setting": "[1]", "result": 5.58, "unit": "nM"}
    ]},
    {"binder": "S2X259 variant antibody, VH SEQ ID NO 408 / VL SEQ ID NO 444 (antibody, V domains shown) VH: QVQLVQSGAEVKKPGSSVKVSCKASGGIFNTYTISWVRQAPGQGLEWMGRIILMSGMANYAQKIQGRVTITADKSTSTAYMELTSLRSDDTAVYYCARGFNGNYYGWGDDDAFDISGQGTLVTVYS VL: QTVLTQPPSVSGAPGQRVTISCTGSNSNIGAGYDVHWYQQLPGTAPKLLIYGNSNRPSGVPDRFSGSKSGTSASLAITGLQAEDEADYYCQSYDSSLSGPNWVFGGGTKLTVL", "values": [
      {"measurement": "Kd", "setting": "[1]", "result": 1.34, "unit": "nM"},
      {"measurement": "neutralization IC50", "setting": "[2]", "result": 0.0811, "unit": "µg/mL"}
    ]},
    {"binder": "S2X259 variant antibody, VH SEQ ID NO 448 / VL SEQ ID NO 412 (antibody, V domains shown) VH: QVQLVQSGAEVKKPGSSVKVSCKASGGIFSTYTISWVRQAPGQGLEWMGRIILMSGMANYAQKIQGRVTITADKSTSTAYMELTSLRSDDTAVYYCARGFNGNYYGWGDDDAFDISGQGTLVTVYS VL: QTVLTQPPSVSGAPGQRVTISCTGSNSNIGAGYDVHWYQQLPGTAPKLLICGNSNRPSGVPDRFSGSKSGTSASLAITGLQAEDEADYYCQSYDSSLSGPNWVFGGGTKLTVL", "values": [
      {"measurement": "binding result", "setting": "[1]", "result": "no binding"}
    ]}
  ]
}
